According to US20240425876A1 (CHIGENOVO, published 2024):

Biological target: the molecule itself
Experiment: Western blot of transfected HEK293 cells
Protocol: After 48 hours, the cells were lysed. The C-terminal truncated version containing a flag tag in the cells was enriched by using flag antibody (F1804. Sigma)-coupled magnetic beads, and then the presence of the N-terminal truncated version interacting with the C-terminal truncated version was detected by western blot using an HA antibody (AE036, ABclonal).

B1: N-terminal truncated version (aa 1-1347) of ABCA4 with an HA tag at its C-terminus (other)
chain: MGFVRQIQLLLWKNWTLRKRQKIRFVVELVWPLSLFLVLIWLRNANPLYSHHECHFPNKAMPSAGMLPWLQGIFCNVNNPCFQSPTPGESPGIVSNYNNSILARVYRDFQELLMNAPESQHLGRIWTELHILSQFMDTLRTHPERIAGRGIRIRDILKDEETLTLFLIKNIGLSDSVVYLLINSQVRPEQFAHGVPDLALKDIACSEALLERFIIFSQRRGAKTVRYALCSLSQGTLQWIEDTLYANVDFFKLFRVLPTLLDSRSQGINLRSWGGILSDMSPRIQEFIHRPSMQDLLWVTRPLMQNGGPETFTKLMGILSDLLCGYPEGGGSRVLSFNWYEDNNYKAFLGIDSTRKDPIYSYDRRTTSFCNALIQSLESNPLTKIAWRAAKPLLMGKILYTPDSPAARRILKNANSTFEELEHVRKLVKAWEEVGPQIWYFFDNSTQMNMIRDTLGNPTVKDFLNRQLGEEGITAEAILNFLYKGPRESQADDMANFDWRDIFNITDRTLRLVNQYLECLVLDKFESYNDETQLTQRALSLLEENMFWAGVVFPDMYPWTSSLPPHVKYKIRMDIDVVEKTNKIKDRYWDSGPRADPVEDFRYIWGGFAYLQDMVEQGITRSQVQAEAPVGIYLQQMPYPCFVDDSFMIILNRCFPIFMVLAWIYSVSMTVKSIVLEKELRLKETLKNQGVSNAVIWCTWFLDSFSIMSMSIFLLTIFIMHGRILHYSDPFILFLFLLAFSTATIMLCFLLSTFFSKASLAAACSGVIYFTLYLPHILCFAWQDRMTAELKKAVSLLSPVAFGFGTEYLVRFEEQGLGLQWSNIGNSPTEGDEFSFLLSMQMMLLDAAVYGLLAWYLDQVFPGDYGTPLPWYFLLQESYWLGGEGCSTREERALEKTEPLTEETEDPEHPEGIHDSFFEREHPGWVPGVCVKNLVKIFEPCGRPAVDRLNITFYENQITAFLGHNGAGKTTTLSILTGLLPPTSGTVLVGGRDIETSLDAVRQSLGMCPQHNILFHHLTVAEHMLFYAQLKGKSQEEAQLEMEAMLEDTGLHHKRNEEAQDLSGGMQRKLSVAIAFVGDAKVVILDEPTSGVDPYSRRSIWDLLLKYRSGRTIIMSTHHMDEADLLGDRIAIIAQGRLYCSGTPLFLKNCFGTGLYLTLVRKMKNIQSQRKGSEGTCSCSSKGFSTTCPAHVDDLTPEQVLDGDVNELMDVVLHHVPEAKLVECIGQELIFLLPNKNFKHRAYASLFRELEETLADLGLSSFGISDTPLEEIFLKVTEDSDSGPLFAGGAQQKRENVNPRHPCLGPREKAGQTPQDSNVCSPGAPAAHPEGQPPPEPECPGPQLNTG
notes: Expressed in HEK293 cells from a codon-optimized CDS; tested in cell lysate; also called N1347; not shown: hemagglutinin (HA) tag linked to the C-terminus
binding result: binds

B2: C-terminal truncated version (aa 1348-2273) of ABCA4 with a Flag tag at its C-terminus (other)
chain: TQLVLQHVQALLVKRFQHTIRSHKDFLAQIVLPATFVFLALMLSIVIPPFGEYPALTLHPWIYGQQYTFFSMDEPGSEQFTVLADVLLNKPGFGNRCLKEGWLPEYPCGNSTPWKTPSVSPNITQLFQKQKWTQVNPSPSCRCSTREKLTMLPECPEGAGGLPPPQRTQRSTEILQDLTDRNISDFLVKTYPALIRSSLKSKFWVNEQRYGGISIGGKLPVVPITGEALVGFLSDLGRIMNVSGGPITREASKEIPDFLKHLETEDNIKVWFNNKGWHALVSFLNVAHNAILRASLPKDRSPEEYGITVISQPLNLTKEQLSEITVLTTSVDAVVAICVIFSMSFVPASFVLYLIQERVNKSKHLQFISGVSPTTYWVTNFLWDIMNYSVSAGLVVGIFIGFQKKAYTSPENLPALVALLLLYGWAVIPMMYPASFLFDVPSTAYVALSCANLFIGINSSAITFILELFENNRTLLRFNAVLRKLLIVFPHFCLGRGLIDLALSQAVTDVYARFGEEHSANPFHWDLIGKNLFAMVVEGVVYFLLTLLVQRHFFLSQWIAEPTKEPIVDEDDDVAEERQRIITGGNKTDILRLHELTKIYPGTSSPAVDRLCVGVRPGECFGLLGVNGAGKTTTFKMLTGDTTVTSGDATVAGKSILTNISEVHQNMGYCPQFDAIDELLTGREHLYLYARLRGVPAEEIEKVANWSIKSLGLTVYADCLAGTYSGGNKRKLSTAIALIGCPPLVLLDEPTTGMDPQARRMLWNVIVSIIREGRAVVLTSHSMEECEALCTRLAIMVKGAFRCMGTIQHLKSKFGDGYIVTMKIKSPKDDLLPDLNPVEQFFQGNFPGSVQRERHYNMLQFQVSSSSLARIFQLLLSHKDSLLIEEYSVTQTTLDQVFVNFAKQQTESHDLPLHPRAAGASRQAQD
notes: Expressed in HEK293 cells; captured on flag antibody-coupled magnetic beads; not shown: Flag tag linked to the C-terminus
binding result: binds
